Source: patent US20080311122A1, “Antagonists of Hmgb1 and/or Rage and Methods of Use Thereof” (Medimmune, LLC, priority 2005, published 2008)
Like-named read-outs stand apart in the source and are kept apart here.

What was measured:
mouse macrophages = assay: TNF-a induction in mouse macrophages; format: cell-based
Experimental: TNF-a Induction: To examine mRNA levels macrophages were derived from mouse bone marrow using M-CSF. Macrophages were then stimulated by LPS, E. coli produced recombinant HMGB1 or HMGB1 purified from bovine thymus for indicated length of time and mRNA is measured by Taqman. To examine protein levels thioglycant activated mouse peritoneal macrophages were stimulated with 10 μg/mL of HMGB1 purified from bovine thymus or recombinant HMGB1 generated from E. coli for 24 hr. Cytokines in the supernatant were measured by ELISA.

[1] = tested on: CpG2216+thymus HMG1 induced IFN-a release (TLR9 signaling); assay: Inhibition of HMG1 mediated enhancement of TLR9 signaling, CpG2216 + thymus HMG1 in bone marrow cells; format: cell-based; conditions: mouse bone marrow cells
Experimental: HMGB1+TLR Ligand: Freshly isolated bone marrow cells were stimulated with TLR ligands (TLR3:PolyIC@5 μg/mL; TLR4:LPS@2.5 ng/mL; TLR5:flagellin@0.25 μg/mL; TLR7:polyU@4 μg/mL or R837@5 μg/mL; TLR9:CpG2216@1 μM) with or without presence of thymus HMGB1 (10 μg/mL) for 24 hr. Cytokines in the supernatant were measured by ELISA.
Inhibition of HMG1 Mediated Enhancement of TLR Signaling: Freshly isolated bone marrow cells were stimulated with TLR9 ligand CpG2216 (0.3 μM) and thymus HMGB1 (10 μg/mL) in the presence of different concentration of the anti-HMGB1 mAb E11 or control human IgG for 24 hr and IFN-a in the supernatant was measured by ELISA. CpG2216, HMGB1 and nonstimulatory DNA were used alone or in combination as controls for the assay.

[2] = molecular target: T1, interaction of CpG and HMGB1 (Bos taurus, UniProt P10103); assay: CpG ELISA, HMGB1 binding to CpG
T1 construct: from tissue; host or cells: bovine thymus
T1 sequence (P10103 2-215 limits assumed): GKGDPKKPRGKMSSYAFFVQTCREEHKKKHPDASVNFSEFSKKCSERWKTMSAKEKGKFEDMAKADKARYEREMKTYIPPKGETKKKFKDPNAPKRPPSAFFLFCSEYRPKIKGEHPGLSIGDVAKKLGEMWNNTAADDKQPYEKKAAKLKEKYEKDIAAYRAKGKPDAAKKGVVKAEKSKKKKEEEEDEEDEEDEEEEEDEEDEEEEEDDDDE
Experimental: CpG ELISA: Proteins or peptides were diluted in PBS to the concentration of 5 μg/ml and coated onto plates at 4° C. o/n. Plates were blocked with 4% dry milk in PBS. Biotin labeled CpG-A alone or in complex with HMGB1 were incubated in the plates at 37° C. for 1 hr. and detected with HRP labeled strep-avidin.

AM14 B cells = assay: AM14 proliferation assay; format: cell-based, mouse; conditions: for inhibition of DNA immune complex (PL2-3) dependent proliferation of AM14 B cells: thymidine incorporation
Experimental: AM14 proliferation assay: Purified AM14 B cells were preincubated with RAGE-Fc or control human IgG1 for 30 min at 37° C., and stimulated with 0.1 μg/ml of PL2-3 for 24 h at 37° C. Cells were then pulsed with [^3H]thymidine for 6 h.

[3] = tested on: HMG1 stimulated cytokine gene expression in mouse macrophages; assay: Taqman analysis of mouse macrophages (mMØ) stimulated with HMG1; format: cell-based; conditions: rHMG1
Experimental: Taqman Analysis of Mouse Macrophages (mMØ) Stimulated with HMG1: Mouse bone marrow was harvested by rinsing the femurs of normal C57BL/6 mice. The isolated bone marrow cells were then cultured in Dulbecco's modified Eagle's medium (DMEM) supplemented with 10% fetal bovine serum (FBS) and 50 ng/ml M-CSF for 24 h, nonadherent cells were collected and grown for 6 days in complete DMEM supplemented with 10% FBS and 50 ng/ml M-CSF in T-75 flasks (1×10^7 cells/15 ml/flask). On day 6, adherent cells were harvested and reseeded with 5 ng/ml MCSF in α-MEM containing 10% FBS in 96-well plates (1×10^5 cells/200 μl/well) overnight.
The culture medium was replaced with α-MEM and incubated for 2 hours before stimulation to starve cells. HMGB1 (recombinant CBP-HMGB1 fusion protein generated from E. coli at 10 μg/ml), mouse-RAGE-Fc or human-RAGE-Fc fusion protein were pre-mixed with various blocking reagents at 100 μg/ml in α-MEM for 20 min at RT, then 100 μl of the mixtures was added to the cells and incubated at 37° C. for 2 hours. The supernatant was then removed, and the RNA was extracted using Ambion's MagMAX™-96 Total RNA Isolation Kit. All of the recovered RNA were used in a reverse transcriptase (RT) reaction with SuperScript™ III and oligo(dT) primer (Invitrogen) for synthesis of cDNA. 1 μl or 2 μl of the resulting cDNA was used for real time quantitative PCR analysis (TaqMan) using ABI Prism 7700 or 7000.

B1: rHMG1: E. coli produced recombinant HMG1 (CBP fusion protein) (protein)
chain: MGKGDPKKPRGKMSSYAFFVQTCREEHKKKHPDASVNFSEFSKKCSERWKTMSAKEKGKFEDMAKADKARYEREMKTYIPPKGETKKKFKDPNAPKRPPSAFFLFCSEYRPKIKGEHPGLSIGDVAKKLGEMWNNTAADDKQPYEKKAAKLKEKYEKDIAAYRAKGKPDAAKKGVVKAEKSKKKKEEEEDEEDEEDEEEEEDEEDEDEEEDDDDE
modifications: left off: small tags and cut ends
- induction of TNF-a mRNA levels (mouse macrophages; 2 hours): ~43 fold
- increase in TNF-a protein levels (mouse macrophages; 24 hours, supernatant): ~10 fold

B2: A-box: synthesized HMGB1 A-box peptide (SEQ ID NO: 108), a known HMGB1 antagonist (peptide, listed as Homo sapiens)
chain: PRGKMSSYAFFVQTCREEHKKKHPDASVNFSEFSKKCSERWKTMSAKEKGKFEDMAKADKARYEREMKTYIPPKGET
- inhibition of IFN-a release induced by CpG + thymus HMG1 [1]: inhibit IFN-a release
- inhibition of IFN-a release induced by CpG + thymus HMG1 ([1]; listed as HMGB1 A-box): did not show inhibition in this assay
- inhibition of the interaction of CpG and HMGB1 [2]: inhibit the interaction of CpG and HMGB1
- inhibition of the interaction of CpG and HMGB1 ([2]; listed as A box HMGB1): prevented the binding of HMGB1 to CpG DNA
- effect on TLR2, TLR4 ligand induced proliferation or BCR mediated B cell activation (AM14 B cells): had no effect
- inhibition of DNA immune complex (PL2-3) dependent proliferation of AM14 B cells (AM14 B cells; listed as A box antagonist): reduced proliferation
- inhibition of DNA immune complex (PL2-3) dependent proliferation of AM14 B cells (AM14 B cells; listed as HMGB A box): markedly inhibited PL2-3-dependent proliferation of AM14 B cells

B3: mouse RAGE-Fc fusion protein: mouse RAGE-Fc fusion protein (protein)
chain: QNITARIGEPLVLSCKGAPKKPPQQLEWKLNTGRTEAWKVLSPQGGPWDSVARILPNGSLLLPATGIVDEGTFRCRATNRRGKEVKSNYRVRVYQIPGKPEIVDPASELTASVPNKVGTCVSEGSYPAGTLSWHLDGKLLIPDGKETLVKEETRRHPETGLFTLRSELTVIPTQGGTHPTFSCSFSLGLPRRRPLNTAPIQLRVREPGPPEGIQLLVEPEGGIVAPGGTVTLTCAISAQPPPQVHWIKDGAPLPLAPSPVLLLPEVGHEDEGTYSCVATHPSHGPQESPPVSIRVTETGDEGPAEGSVGESGLGTLALA
modifications: left off: a dimerising Fc or GST
- inhibition of HMG1-induced IL-1β gene expression [3]: robustly inhibited
- inhibition of HMG1-induced TNF-a gene expression [3]: robustly inhibited
